From the nanobody polyreactivity screen of Harvey et al. (2022)

Assay: yeast display, Sf9 membrane polyspecificity reagent, FACS + sequencing; frameworks hold sequencing errors
Outline: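 A synthetic nanobody library was expressed on Saccharomyces cerevisiae BJ5465 by galactose induction for 36–48 hours. The library was stained for 1 hour at 4 °C with 10% biotinylated, detergent-solubilized Sf9 membrane reagent and enriched with streptavidin microbeads before FACS. Low and high (top ~1%) gates were set on anti-HA fluorescence for expression and streptavidin fluorescence for reagent binding, and each polyreactivity label reflects the gate of origin.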

For “QVQLVESGGGLVQAGGSLRLTCAASGRTFAGNAMGWYRQAPGKERELVAAIRRTGGRTYYADSVKGRFTISRDNAKNSVYLQRNSLKPEDTAVYYCYAVNKPYTREYGYDYWGKGTQVTVSS”, which “polyreactivity (PSR sort gate)” value is on record?
Its value is “high polyreactivity”.

Which “polyreactivity (PSR sort gate)” value does the source give for “QVQLVESGGGLVQAGGSLRLSCAASGFIFSQNTMGWYRQAPGKERELVAAISKSGGTTYYADSVKGRFTISRDNAKNTVYLQMNSLKPEDTAVYYCARDKGYVSYRYNYWGQGTQVTVSS” here?
The value was “high polyreactivity”.

With “QVQLVESGGGLVQAGGSLRLTSAGSGGILPKNAMGWSRQAPGKERELVADISTRGTSTYYADSVKGRFTISRDIAKNTVYLQMNSVKPEVTAVYYCANCRDYIGYDYWGQGSQVTVSS” as the sequence, how does the “polyreactivity (PSR sort gate)” value read?
The value was “low polyreactivity”.

With “QVQLQESGGCLVQAGGSQRLSCAASGYIFYFQYMGWYRQAQGKEREFVAAISDGANTNYADSVKGRFTISRDNAKNTEYLKMNSLKPEDTAVYYCAVYADENYYYIYWGQGTQVTVSS” as the sequence, how does the “polyreactivity (PSR sort gate)” value read?
Its value is “low polyreactivity”.

For “QVQLVESGGGLVQAGGSLRLSCASSGRTFLGYAMGWYRQAPGKERELVAAISYSGSSTYYADSVKGRFTISRDNAKNTVYLQMNSLKPEDTAVYYCAAQFYFLFDYWGQGTQVTVSS”, which “polyreactivity (PSR sort gate)” value is on record?
The value was “low polyreactivity”.

For “QVQLVESGGGLVQAGGSLRLSCAASGRTIVYYAMGWYRQAPGKERDFVAAISRSGGRTSYADSVKGRFTISRDNAKNTVYLQMNSLKPEDTAVYYCAAEKRTQPTSREYYWGQGTQVTVSS”, which “polyreactivity (PSR sort gate)” value is on record?
Its value is “high polyreactivity”.

With “QVQLVESGGGLVQAGGSLRLSCAASGSTLDIYAMGWYRQAPGKERELVAAITSGGSTNYADSVKGRFTISRDNAKTTVYLQLNSLKPEDTAVYSCNARYFRGYDYWGQGTQVSVSS” as the sequence, how does the “polyreactivity (PSR sort gate)” value read?
Its value is “high polyreactivity”.

For “QVQLVESGGGLVQAGGSLRLSCAASGITFNTDTMGWYRQAPGKEWELVAAITLSGAGTYYADSVKGRFTISRDNAKNTVYLQMNSLKPEDTAVYYCAAYLSENRWPYVRYDYWGQGTQVTVSS”, which “polyreactivity (PSR sort gate)” value is on record?
The value was “high polyreactivity”.

With “QVQLVESGGGLVQAGGSLRLSCAASGSIFQYNDMGWYRQQPGKEREFVADISSSGGSTYYADSVKGRFTISRDTAKNTVYLQMNSLKPEDTEVYYCNADPGYDFYRDEYWGQGTQVTVSS” as the sequence, how does the “polyreactivity (PSR sort gate)” value read?
Its value is “low polyreactivity”.

For “QVQLVESGGGLVQAGGSLRLSCAASGRTLRHYAMGWYRQAPGKERELVAAISSTGSSTYYADSVKGRFTISRDNAKNTVYLQMNSLKPEDTAVYYCAADKYTWDAGGVDYWGQGTQVTVSS”, which “polyreactivity (PSR sort gate)” value is on record?
Its value is “low polyreactivity”.

With “QVQLVESGGGLVQAGGSLRLSCAASGFTLGRYAMGWYRQAPGKEREFVAAISRGGGSTNYADSVKGRFTISRDNAKNTVYLQMNSLKPEDTAVYYCAADDHTSGYGYWGQGTQVTVSS” as the sequence, how does the “polyreactivity (PSR sort gate)” value read?
The value was “high polyreactivity”.

With “QVQLVESGGGLVQAGGSLRLSCAASGFTFYTYVMGWYRQAPGKERELVAAITSGVSTNYADSVKGRFTISRDNAKNTVYLQMNSVKPEDTAVYYCAAGYPSWYYGYPYDSWGQGTQVTVSS” as the sequence, how does the “polyreactivity (PSR sort gate)” value read?
The value was “low polyreactivity”.

Which “polyreactivity (PSR sort gate)” value does the source give for “QVQLVESGGGLVQAGGSLRLSCAASGGTLRGYAMGWYRQAPGKERELVASITYTSGSTYYADSVKGRFTISRDNAKNTVYLQINSLKPEDTAVYYCAAVARTVPSYSYNYWGQGTKVTVSS” here?
The value was “high polyreactivity”.

For “QVQLVESGGGLVQAGGSLRLSCAASGFNFDGNAMGWYRQEPGKEMELVARITWDDGSTYYADSVKGRFTISRDNAKNTVYLQMNSLKPEDTAVYYCNTDYGEYYSLDLLWWYIPYDYWGQGTQVTVSS”, which “polyreactivity (PSR sort gate)” value is on record?
The value was “low polyreactivity”.

Which “polyreactivity (PSR sort gate)” value does the source give for “QVQLVESGGGLVQAGGSLRLSCAASGSIFEYNAMGWYRQAPGKERELVAAISGNGGRTYYADSVKGRFTISRDNAKNTVYLQMNSLKPEDTAVYYCNAQTYYSTYKSTFYYWGQGTQVTVSS” here?
The value was “high polyreactivity”.

For “QVQLQESGGGMVQAGGSLRLSCAASGYISWADYKGWYRQAPGKERELVAGIGYGSTTYYADSVKGRFTISRDNAINTAYLQMNSLKPEDTAVYYCAVGWYRDTAYKYWGHGTQVTVSS”, which “polyreactivity (PSR sort gate)” value is on record?
Its value is “low polyreactivity”.

With “QVQLVESGGGLVQAGGSLRLSCAASGSTFGWYAMGWDRQAPGKERELVAAIRNNDGRTYYADSVKGRFTISRDNAKNTVYLQMNSLKPEDTAVDYCNKRLDTVGWYHGYNYWGQGTQVTVSS” as the sequence, how does the “polyreactivity (PSR sort gate)” value read?
The value was “low polyreactivity”.

For “QVQLVESGGGLVQAGGSLRLSCDASGFTFYKNAMGWYRQAPGKERELVAAISSGGSTSYADSVKGRFTISRDNAKNTVYLQMNSLKPEDTAVYFCAADRFAFYGRYRGPYYYWGQGTQVTVSS”, which “polyreactivity (PSR sort gate)” value is on record?
The value was “high polyreactivity”.

Which “polyreactivity (PSR sort gate)” value does the source give for “QVQLVESGGGLVQAGGSLRLSCAASGSTFRRYAMGWYRQAPGKERELVATITSGGRTNYADSVKGRFTISRDNAKNTVYLQMNSLKPEDTAVYYCADRPYFYERSAGYYWGQGTQVTVSS” here?
The value was “high polyreactivity”.

For “QVQLVESGGGLVQAGGSLRLSCAASGIIFDFYAMGWYRQAPGKEWELVAAITVSGGSTYYADSVKGRFTISRDNAKNTVYLQMNSLKPEDTAVYYCAAVGDWYVSYYEMDYWGQGTQVTVSS”, which “polyreactivity (PSR sort gate)” value is on record?
Its value is “low polyreactivity”.

For “QVQLVESGGGLVQAGGSLRISCAASGSTFGSYVMGWYRQAPGKERELVAAICGSGGSTYYADSVKGRFTISRDNAKHTVYLQMNSLKPEDTAVYYCAAYVYFPWYGYWGQATQVTVSS”, which “polyreactivity (PSR sort gate)” value is on record?
The value was “high polyreactivity”.

For “QVQLVESGGGLVQAGGSLRLSCAASGSTFKRYSMGWYRQAPGKERELVASISGRGGGTYYADSVKGRFTISRDNEKNTVYLQMNSLIPEDTAVYYCAAYGRYYGFDYWGLGTQVTVSS”, which “polyreactivity (PSR sort gate)” value is on record?
The value was “high polyreactivity”.
